Results as given in article PMC12713436 (2025).

Target: secretory immunoglobulin A1 (sIgA1) from human colostrum (human (endogenous in colostrum), UniProt P01591 23-159; P01833 19-603, dense O-glycosylation, predominantly in the hinge region)
Experiment: apparent Kd from DLS Hill fit, h = 2.04

Sequence of secretory immunoglobulin A1 (sIgA1) from human colostrum (chain, as listed by the source, chain 1 of 3): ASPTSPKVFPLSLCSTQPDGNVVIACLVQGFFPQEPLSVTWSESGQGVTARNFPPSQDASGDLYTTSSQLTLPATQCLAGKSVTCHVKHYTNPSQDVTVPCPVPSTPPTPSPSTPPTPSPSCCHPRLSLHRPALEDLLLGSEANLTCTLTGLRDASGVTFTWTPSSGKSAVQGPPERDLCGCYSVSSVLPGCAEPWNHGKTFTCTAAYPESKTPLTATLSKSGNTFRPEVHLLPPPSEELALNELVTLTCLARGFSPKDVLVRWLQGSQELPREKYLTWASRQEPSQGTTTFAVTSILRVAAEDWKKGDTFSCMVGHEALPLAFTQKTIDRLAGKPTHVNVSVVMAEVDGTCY
Sequence of secretory immunoglobulin A1 (sIgA1) from human colostrum (P01591 23-159, chain 2 of 3): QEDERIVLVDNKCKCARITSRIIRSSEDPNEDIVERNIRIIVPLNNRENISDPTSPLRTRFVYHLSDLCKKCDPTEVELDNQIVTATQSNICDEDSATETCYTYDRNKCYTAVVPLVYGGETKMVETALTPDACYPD
Sequence of secretory immunoglobulin A1 (sIgA1) from human colostrum (P01833 19-603, chain 3 of 3): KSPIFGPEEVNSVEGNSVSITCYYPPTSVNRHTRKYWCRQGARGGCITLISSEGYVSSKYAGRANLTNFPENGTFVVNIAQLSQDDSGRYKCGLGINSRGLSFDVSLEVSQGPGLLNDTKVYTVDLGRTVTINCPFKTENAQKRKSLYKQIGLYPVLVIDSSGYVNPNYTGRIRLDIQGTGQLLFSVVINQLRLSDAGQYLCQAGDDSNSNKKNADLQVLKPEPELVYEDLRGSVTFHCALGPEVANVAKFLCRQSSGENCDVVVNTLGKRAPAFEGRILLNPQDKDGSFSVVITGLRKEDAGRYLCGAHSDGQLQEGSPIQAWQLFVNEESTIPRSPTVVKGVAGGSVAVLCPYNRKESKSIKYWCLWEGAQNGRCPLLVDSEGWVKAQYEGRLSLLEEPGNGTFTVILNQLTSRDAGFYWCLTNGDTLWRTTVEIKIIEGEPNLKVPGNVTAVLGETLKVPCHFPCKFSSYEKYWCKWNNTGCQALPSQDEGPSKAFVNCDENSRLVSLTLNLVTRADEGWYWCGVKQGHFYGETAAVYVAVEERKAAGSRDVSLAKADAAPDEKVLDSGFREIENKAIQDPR

B1: frutalin (FTL), galactose-specific jacalin-related lectin from Artocarpus altilis (syn. Artocarpus incisa) seeds (natural protein)
chain 1: GKAFDDGAFTGIREINLSYNKETAIGDFQVIYDLNGSPFVGQNHTSFITGFTPVKISLDFPSEYIIEVSGHTGKVSGYVVVRSLAFKTNKKTYGPYGVTSGTPFNLPIENGLIVGFKGSIGYWLDYFSMYLSL
chain 2: AEQSGKSQTVIVGPWGAQVS
modifications: α-chain glycoisoforms (differential glycosylation and limited proteolysis)
In the case of B1, the Kd is reported as 930 nM.
